Here are results for 1 molecule from paper PMC9132103 (Science (New York, N.Y.), 2021).

For data set [1], the target named is T1, IL-10Rα ECD, from Expi-293 cells (for structural studies) (human, UniProt Q13651 20-235).
T1 sequence (looked up): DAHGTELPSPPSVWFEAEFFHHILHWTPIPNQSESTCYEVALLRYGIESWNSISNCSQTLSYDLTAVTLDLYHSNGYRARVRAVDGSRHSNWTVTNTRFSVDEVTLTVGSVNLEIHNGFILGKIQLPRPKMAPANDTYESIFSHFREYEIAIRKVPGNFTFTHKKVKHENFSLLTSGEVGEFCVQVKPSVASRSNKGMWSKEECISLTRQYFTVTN
As to the kind of experiment: SEC. (In gel filtration, larger molecules generally elute earlier.)

The data set “cryo-EM structure” deals with the molecule itself. Briefly: cryo-EM structure.

B1: Affinity matured IL-10 (super-10, clone 5.1), soluble (ligand, UniProt P22301 19-178, looked up)
chain: SPGQGTQSENSCTHFPGYLPNMLRDLRDAFSRVKTFFQMKDQLDNLLLKESLLEDFKGYLGCQALSEMIQFYLEEVMPQAENQDPDIKAHVQSLGENLKDLRLWLRRCHRFLPCENKSKAVEQVKNAFNKLQEKGIYKAMSEFDIFINYIEAYMTMKIRN
Take B1: the binding result (in data set [1]; in “cryo-EM structure”) was “binds” in each case.
